Source: US20230374132A1 (Innovent, published 2023)
Changes are numbered by the printed parent chain. Names and notes keep the numbering of the source.

B1: hzsp34.38 (antibody, human IgG1, kappa, L234A L235A, V domains shown)
VH: EVQLVESGGGLVQPGGSLKLSCAASGFTFNTYAMNWVRQASGKGLEWVGRIRSKYNNYATYYADSVKDRFTISRDDSKSTLYLQMNSLKTEDTAVYYCARHGNFGNSYVSWFAYWGQGTTVTVSS
VL: EIVMTQSPATLSVSPGERATLSCRSSTGAVTTSNYANWVQQKPGQAPRGLIGGTNKRAPGVPARFSGSGSGTEFTLTISSLQSEDFAVYYCALWYSNLWVFGQGTKLTVLR
notes: IgG1 L234A L235A, kappa
B2: hzsp34.39 (antibody, human IgG1, kappa, L234A L235A, V domains shown)
VH: B1 VH with N106Q
VL: B1 VL
notes: IgG1 L234A L235A, kappa
B3: hzsp34.40 (antibody, human IgG1, kappa, L234A L235A, V domains shown)
VH: B1 VH with G49A, N106Q
VL: B1 VL
notes: IgG1 L234A L235A, kappa
B4: hzsp34.42 (antibody, human IgG1, kappa, L234A L235A, V domains shown)
VH: B1 VH with S79N
VL: B1 VL with T72D
notes: IgG1 L234A L235A, kappa
B5: hzsp34.43 (antibody, human IgG1, kappa, L234A L235A, V domains shown)
VH: B1 VH
VL: B1 VL with T72D
notes: IgG1 L234A L235A, kappa
B6: hzsp34.44 (antibody, human IgG1, kappa, L234A L235A, V domains shown)
VH: B1 VH with N106Q
VL: B1 VL with T72D
notes: IgG1 L234A L235A, kappa
B7: hzsp34.45 (antibody, human IgG1, kappa, L234A L235A, V domains shown)
VH: B1 VH with G49A, N106Q
VL: B1 VL with T72D
notes: IgG1 L234A L235A, kappa
B8: hzsp34.13 (antibody, human IgG1, lambda, L234A L235A, V domains shown)
VH: B1 VH
VL: QAVVTQEPSLTVSPGGTVTLTCRSSTGAVTTSNYANWVQQKPGQAPRTLIGGTNKRAPGVPARFSGSLLGGKAALTLLGAQPEDEAEYYCALWYSNLWVFGQGTKLTVLG
notes: IgG1 L234A L235A, lambda
B9: hzsp34.7 (antibody, human IgG1, lambda, L234A L235A, V domains shown)
VH: B1 VH with S79N
VL: B8 VL with V38F, G51Y, G59W, V60T
notes: IgG1 L234A L235A, lambda
B10: hzsp34.12 (antibody, human IgG1, lambda, L234A L235A, V domains shown)
VH: B1 VH with S79N
VL: B8 VL
notes: IgG1 L234A L235A, lambda
B11: Her2-hzsp34.24 (bispecific antibody, IgG1, V domains shown)
VH 1: not shown
VL 1: not shown
VH 2: B1 VH with N106Q
VL 2: QAVVTQEPSLTVSPGGTVTLTCRSSTGAVTTSNYANWVQQKPGQAPRGLIGGTNKRAPGVPARFSGSLLGDKAALTLLGAQPEDEAEYYCALWYSNLWVFGQGTKLTVL
notes: 1+1 trastuzumab x hzsp34.24, IgG1 LALA knob-into-hole; also called Her2-sp34.24; copies: 1 + 1 + 1 + 1
B12: Her2-hzsp34.80 (bispecific antibody, IgG1, V domains shown)
VH 1: not shown
VL 1: not shown
VH 2: B1 VH with Y32A, N106Q
VL 2: B11 VL 2
notes: 1+1 trastuzumab x hzsp34.80, IgG1 LALA knob-into-hole; also called Her2-sp34.80; copies: 1 + 1 + 1 + 1
B13: Her2-hzsp34.87 (bispecific antibody, IgG1, V domains shown)
VH 1: not shown
VL 1: not shown
VH 2: B1 VH with G102Y, N106Q
VL 2: B11 VL 2
notes: 1+1 trastuzumab x hzsp34.87, IgG1 LALA knob-into-hole; also called Her2-sp34.87; copies: 1 + 1 + 1 + 1
B14: Her2-hzsp34.97 (bispecific antibody, IgG1, V domains shown)
VH 1: not shown
VL 1: not shown
VH 2: B1 VH with Y55A, N56G, N57G, N106Q
VL 2: B11 VL 2
notes: 1+1 trastuzumab x hzsp34.97, IgG1 LALA knob-into-hole; also called Her2-sp34.97; copies: 1 + 1 + 1 + 1
B15: Her2-hzsp34.99 (bispecific antibody, IgG1, V domains shown)
VH 1: not shown
VL 1: not shown
VH 2: B1 VH with F104A, G105Y, N106Q
VL 2: B11 VL 2
notes: 1+1 trastuzumab x hzsp34.99, IgG1 LALA knob-into-hole; also called Her2-sp34.99; copies: 1 + 1 + 1 + 1
B16: Her2-hzsp34.101 (bispecific antibody, IgG1, V domains shown)
VH 1: not shown
VL 1: not shown
VH 2: B1 VH with N106Q, Y108A, V109A
VL 2: B11 VL 2
notes: 1+1 trastuzumab x hzsp34.101, IgG1 LALA knob-into-hole; also called Her2-sp34.101; copies: 1 + 1 + 1 + 1
B17: hzsp34.33 (antibody, human IgG1, kappa, L234A L235A, V domains shown)
VH: B1 VH
VL: B1 VL with G49L
notes: IgG1 L234A L235A, kappa
B18: hzsp34.28 (antibody, human IgG1, kappa, L234A L235A, V domains shown)
VH: B1 VH
VL: B1 VL with V39Y, G49L, G52Y, V61I
notes: IgG1 L234A L235A, kappa

Assays:
[1] = target: T1, human CD3 E&D complex protein (Sino Biological Inc., CT026H0323H) (human, UniProt P07766 23-126; P04234 22-105); assay: BLI, antibody on sensor
T1 construct: bought heterodimer; also called human CD3 protein (CT026H0323H)
T1 sequence (P07766 23-126, chain 1 of 2): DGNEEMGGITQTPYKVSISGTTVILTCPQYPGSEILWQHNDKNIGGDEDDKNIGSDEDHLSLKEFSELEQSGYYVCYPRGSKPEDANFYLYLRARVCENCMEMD
T1 sequence (P04234 22-105, chain 2 of 2): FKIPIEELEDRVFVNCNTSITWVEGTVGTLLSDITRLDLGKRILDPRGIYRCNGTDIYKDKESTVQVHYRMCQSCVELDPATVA
Description: (§1) 100 μl SD buffer, various antibodies, human CD3 E&D complex protein (Sino Biological Inc., CT026H0323H), and cynomolgus monkey CD3 E&D complex protein (Sino Biological Inc., CT032-00323H) were added into 96-well black polystyrene semi-quantitative micro-well plate (Greiner, 675076) respectively. Fortebio Octet Red 96 was used for detection, and the sensor position was selected according to the sample position. The setting parameters of the instrument are as follows: operation steps: Baseline, Loading-1 nm, Baseline, Association and Dissociation; the operation time of each step depends on the speed of sample association and dissociation. The rotational speed is 1000 rpm and the temperature is 30° C. ForteBio Octet analysis software was used to analyze KD value.

[2] = target: T2, cynomolgus monkey CD3 E&D complex protein (Sino Biological Inc., CT032-00323H) (cynomolgus monkey, UniProt Q95LI5 22-117; Q95LI8 22-105); assay: BLI, antibody on sensor
T2 construct: bought heterodimer
T2 sequence (Q95LI5 22-117, chain 1 of 2): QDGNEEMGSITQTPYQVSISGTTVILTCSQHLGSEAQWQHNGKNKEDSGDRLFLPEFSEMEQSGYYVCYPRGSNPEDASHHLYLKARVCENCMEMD
T2 sequence (Q95LI8 22-105, chain 2 of 2): as the sequence (P04234 22-105, chain 2 of 2) above, with I5V, N15K, I20V, S32T, D33N, I34N, T64A, S74N, V83L counted along it
Description: as §1

[3] = target: T3, human CD3 complex on Jurkat cells (human, UniProt P07766 23-207; P04234 22-171; P09693 23-182); assay: flow cytometry on Jurkat cells (human CD3 complex), 'Jurkat cell line binding', Example 3.2 [cont) D]
T3 construct: whole, on cells; natural CD3 complex of Jurkat T cells (also used here for CD3 on T cells of human PBMC); also called human CD3 at the cell level; CD3 on T cells
T3 sequence (P07766 23-207, chain 1 of 3): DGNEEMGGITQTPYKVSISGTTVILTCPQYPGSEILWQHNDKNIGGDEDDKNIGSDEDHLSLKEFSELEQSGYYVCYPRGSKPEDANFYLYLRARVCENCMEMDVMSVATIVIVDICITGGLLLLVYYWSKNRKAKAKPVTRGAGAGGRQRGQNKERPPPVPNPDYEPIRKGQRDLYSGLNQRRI
T3 sequence (P04234 22-171, chain 2 of 3): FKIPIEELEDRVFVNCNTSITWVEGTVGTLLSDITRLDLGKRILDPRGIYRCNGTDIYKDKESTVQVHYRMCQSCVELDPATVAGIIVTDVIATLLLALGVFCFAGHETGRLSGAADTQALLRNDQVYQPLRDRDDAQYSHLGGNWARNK
T3 sequence (P09693 23-182, chain 3 of 3): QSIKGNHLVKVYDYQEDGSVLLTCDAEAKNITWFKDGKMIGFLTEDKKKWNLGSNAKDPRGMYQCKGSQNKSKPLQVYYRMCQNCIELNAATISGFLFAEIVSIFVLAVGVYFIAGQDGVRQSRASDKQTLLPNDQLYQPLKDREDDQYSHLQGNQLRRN
Description: Jurkat cells are immortalized human T lymphocytes, which express human CD3 complex. The cell line is used to detect the binding of the antibody to the cell. The detailed operation was as follows: Jurkat cells (Promega, J1621) was inoculated into U-shaped 96-well plate, 2×10⁵ for each well. The antibodies to be detected at a series of concentration gradients (the initial concentration of antibody molecule is 500 nM, 3 folds serial dilution) was added into the corresponding cell well, incubated at 4° C. for 30 minutes, and then PBS was used to wash out the unbound part. The sheep anti-human Fc PE fluorescent second antibody (Southern Biotech, J2815-5H87B) was added, then incubated at 4° C. for 15 minutes. and detected by flow cytometry ([…] BD). […] Some of these antibodies were selected to make a further binding curve at cell level.

[4] = target: T2, cynomolgus monkey CD3 E&D complex …; assay: SPR, antigen on chip
Description: (§2) The CD3 equilibrium dissociation constant (KD) of Her2×CD3 bispecific antibody was determined using Biacore (GE Healthcare, T200), and the specific method is as follows:
(§3) The human CD3E&G antigen (Sino Biological Inc., CT041-H0305H) and Cynomolgus monkey CD3E&D antigen protein (Sino Biological Inc., CT032-00323H) were coupled to the chip surface. Afterwards, the affinity and kinetic constants were obtained by detecting the binding and dissociation between the chip surface antigen and the antibody in the mobile phase. The method includes chip preparation and affinity detection. 10-fold diluted 10×HBS-EP+(BR-1006-69, GE Healthcare) was used as the experimental buffer during measurement. […] After coupling, 1 M ethanolamine was injected to block the remaining activation sites. Affinity detection cycle is carried out for each concentration of antibody, and each cycle includes binding to antibody with this concentration and chip regeneration. The antibody after serial dilution (Her2-sp34.24: initial concentration 32 nM, 2 folds serial dilution; Her2-sp34.87: initial concentration 200 nM, 2 folds serial dilution; Her2-sp34.80, Her2-sp34.97, Her2-sp34.99, Her2-sp34.101: initial concentration 800 nM, 2 folds serial dilution; all dilute 5 concentration points), flows through the chip surface from low concentration to high concentration at 30 μl/min of the flow rate, with a binding time of 180 s and a dissociation time of 600 s. Finally, 10 mM Glycine pH 1.5 (BR-1003-54, GE Healthcare) was used to regenerate the chip. The data results were analyzed using the Biacore T200 analysis software (version 3.1), and the analysis model used was 1:1 combined model for dynamic analysis.

[5] = target: T4, human CD3E&G complex (Sino Biological Inc., CT041-H0305H) (human, UniProt P07766 23-126; P09693 23-116); assay: SPR, antigen on chip
T4 construct: bought heterodimer; also called human CD3E&G antigen
T4 sequence (P07766 23-126, chain 1 of 2): as the sequence (P07766 23-126, chain 1 of 2) above
T4 sequence (P09693 23-116, chain 2 of 2): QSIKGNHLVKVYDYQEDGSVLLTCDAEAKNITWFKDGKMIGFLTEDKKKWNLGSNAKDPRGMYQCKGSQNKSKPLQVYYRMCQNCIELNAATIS
Description: as §2, §3

| Binder | Kd [1] [nM] | koff [1] [s⁻¹] | kon [1] [M⁻¹ s⁻¹] | Kd [2] [nM] | koff [2] [s⁻¹] | kon [2] [M⁻¹ s⁻¹] | EC50 [3] [nM] | binding result [1] | Kd [4] [nM] | koff [4] [s⁻¹] | kon [4] [M⁻¹ s⁻¹] | Kd [5] [nM] | koff [5] [s⁻¹] | kon [5] [M⁻¹ s⁻¹] | binding result [2] |
| --- | --- | --- | --- | --- | --- | --- | --- | --- | --- | --- | --- | --- | --- | --- | --- |
| B1 | 12.7 | 0.00505 | 397000 | 6.36 | 0.00183 | 288000 | 7.85 |  |  |  |  |  |  |  |  |
| B2 | 7.85 | 0.00354 | 451000 | 7.1 | 0.00203 | 286000 |  |  |  |  |  |  |  |  |  |
| B3 | 16.8 | 0.00515 | 307000 | 15.3 | 0.003 | 196000 | 91.9 |  |  |  |  |  |  |  |  |
| B4 | 14.7 | 0.00526 | 357000 | 10.2 | 0.00248 | 243000 | 39.2 |  |  |  |  |  |  |  |  |
| B5 | 12.6 | 0.00453 | 359000 | 7.92 | 0.00201 | 253000 |  |  |  |  |  |  |  |  |  |
| B6 | 16.5 | 0.00581 | 353000 | 12.1 | 0.00293 | 241000 |  |  |  |  |  |  |  |  |  |
| B7 | 18.4 | 0.0065 | 353000 | 26.9 | 0.00521 | 194000 | 122 |  |  |  |  |  |  |  |  |
| B8 | 4.33 | 0.00466 | 1.08e+06 | 1.75 | 0.00164 | 937000 |  |  |  |  |  |  |  |  |  |
| B9 |  |  |  | 1.66 | 0.000463 | 279000 |  | no binding |  |  |  |  |  |  |  |
| B10 | 6.19 | 0.00396 | 640000 | 4.73 | 0.00226 | 479000 |  |  |  |  |  |  |  |  |  |
| B11 |  |  |  |  |  |  |  |  | 7.2 | 0.008 | 1.11e+06 | 4.88 | 0.00779 | 1.6e+06 |  |
| B12 |  |  |  |  |  |  |  |  | 1310 | 0.78 | 596000 | 987 | 0.491 | 497000 |  |
| B13 |  |  |  |  |  |  |  |  | 242 | 0.035 | 145000 | 141 | 0.0462 | 327000 |  |
| B14 |  |  |  |  |  |  |  |  | 327 | 0.177 | 543000 | 361 | 0.191 | 528000 |  |
| B15 |  |  |  |  |  |  |  |  | 1200 | 0.1 | 83400 | 627 | 0.0817 | 130000 |  |
| B16 |  |  |  |  |  |  |  |  | 179 | 0.0987 | 551000 | 159 | 0.101 | 637000 |  |
| B17 |  |  |  |  |  |  |  | no binding |  |  |  |  |  |  | no binding |
| B18 |  |  |  | 2.82 | 0.00117 | 415000 |  | no binding |  |  |  |  |  |  |  |
